The text below walks through data of patent publication US20250340655A1, “EPHA2-TARGETING ANTIBODIES AND THEIR APPLICATIONS IN CANCER TREATMENT” (TAIPEI MEDICAL UNIVERSITY, priority 2022, published 2025).

In experiment [1] the test system is BxPc-3 cells. Kind of experiment: Antibody internalization (endocytosis) assay. Format: cell-based, human. Conditions: BxPc-3, 1 h, 37° C. vs 4° C. (FIG. 6B). On the procedure:
BxPc-3 cells were seeded on cover glasses placed in the wells of a 6-well culture plate. The BxPc-3 seeded glass slides were incubated with ephrin A1-Fc (Sino Biological) or IgG hSD5 for 1 h at 37° C. or 4° C. After washing with PBS, the cells were fixed with 100% ice methanol for 10 min. Next, the cells were stained with an FITC-conjugated anti-human Fc antibody and were subsequently mounted with ProLong Diamond Antifade Mountant comprising 4′,6-diamidino-2-phenylindole for nuclear counterstaining (Invitrogen). The cells were imaged using a confocal microscope (Leica Microsystems).

Experiment [2] concerns the target T1, endogenous EphA2 molecules on three strains of gastric cancer cells (Homo sapiens, UniProt P29317).
T1 construct: identify endogenous EphA2 molecules on three strains of gastric cancer cells; endogenous in cells
Kind of experiment: Flow cytometry binding on gastric cancer cells. Conditions: flow cytometry (FIG. 15A). An excerpt:
Flow cytometry was used to analyze the response of hSD5 IgG in identifying endogenous EphA2 molecules on the three strains of gastric cancer cell lines. PC represents the use of commercial Ab to determine the expression of EphA2 on cancer cells; NC represents the control group with irreverent of the isotype IgG1 antibody. The hSD5 was used to identify endogenous EphA2 molecules on three strains of gastric cancer cells by flow cytometry analysis. […] (FIG. 15A)

Experiment [3] relates to EphA2pep_P1, EphA2pep_P2, EphA2pep_PIP2 synthetic peptides. Kind of experiment: Peptide ELISA for epitope definition. Format: binding. From the text: We used peptide enzyme-linked immunosorbent assay (ELISA) to identify the designed epitope on EphA2; the BSA-conjugated peptides EphA2pep_P1 (BSA-[…]) and EphA2pep_P2 (BSA-[…]) each represent the two segments of the linear epitope designed on EphA2. EphA2pep_PIP2 (BSA-[…]) represents the two linear epitope sequences connected by a linker. These peptides were synthesized and conjugated with BSA (Kelowna International Scientific). The BSA-conjugated peptides were individually coated on a 96-well microplate at 4° C. overnight. After the wells were blocked with 3% BSA, IgG hSD5 was added and incubated. Next, an HRP-conjugated anti-HA tag antibody (Cell Signaling Technology) was used to detect bound scFv. Finally, the TMB substrate was added for development, and the reaction was stopped by adding 1 N HCl. Absorbance was measured by determining the OD at 450 nm. A dot blot assay was used to detect the binding of IgG hSD5 to the synthesized peptides; […] of individual peptides (1 mg/mL; in triplicate) were dropped on the NC membrane and maintained at RT for complete absorption. Blocking with 3% BSA was performed at RT for 1 h. Then, IgG hSD5 (10 μg/mL) was added, and the reaction was allowed to proceed for 1 h at RT. After the membrane was washed, the HRP-conjugated anti-HA tag antibody was added, and the reaction was allowed to proceed for 1 h at RT. Lastly, DAB was used to initiate the coloration reaction.
To determine whether the antibody hSD5 can recognize two antigen fragments simultaneously, peptide synthesis of the two antigen fragments was performed to test the binding reaction of antibody IgG hSD5. The ELISA was used to test the binding reactivity of the antibody hSD5 to synthetic peptides. The two short peptides located on the designed activation site of EphA2 are EphA2pep_P1 and EphA2pep_P2, respectively. The long peptide formed by linking the two short peptides is EphA2pep_PIP2. NCIpep and NC2pep are two irrelevant peptides as the negative control. EphA2 ECD is a recombinant EphA2 extracellular domain protein.
(In general: An ELISA detects its analyte on a solid surface through an enzyme-linked reagent.)

For experiment [4], the target named is T2, EphA1 overexpressed on 293T cells (UniProt P21709 26-976, limits assumed).
T2 construct: whole, on cells
T2 sequence (looked up): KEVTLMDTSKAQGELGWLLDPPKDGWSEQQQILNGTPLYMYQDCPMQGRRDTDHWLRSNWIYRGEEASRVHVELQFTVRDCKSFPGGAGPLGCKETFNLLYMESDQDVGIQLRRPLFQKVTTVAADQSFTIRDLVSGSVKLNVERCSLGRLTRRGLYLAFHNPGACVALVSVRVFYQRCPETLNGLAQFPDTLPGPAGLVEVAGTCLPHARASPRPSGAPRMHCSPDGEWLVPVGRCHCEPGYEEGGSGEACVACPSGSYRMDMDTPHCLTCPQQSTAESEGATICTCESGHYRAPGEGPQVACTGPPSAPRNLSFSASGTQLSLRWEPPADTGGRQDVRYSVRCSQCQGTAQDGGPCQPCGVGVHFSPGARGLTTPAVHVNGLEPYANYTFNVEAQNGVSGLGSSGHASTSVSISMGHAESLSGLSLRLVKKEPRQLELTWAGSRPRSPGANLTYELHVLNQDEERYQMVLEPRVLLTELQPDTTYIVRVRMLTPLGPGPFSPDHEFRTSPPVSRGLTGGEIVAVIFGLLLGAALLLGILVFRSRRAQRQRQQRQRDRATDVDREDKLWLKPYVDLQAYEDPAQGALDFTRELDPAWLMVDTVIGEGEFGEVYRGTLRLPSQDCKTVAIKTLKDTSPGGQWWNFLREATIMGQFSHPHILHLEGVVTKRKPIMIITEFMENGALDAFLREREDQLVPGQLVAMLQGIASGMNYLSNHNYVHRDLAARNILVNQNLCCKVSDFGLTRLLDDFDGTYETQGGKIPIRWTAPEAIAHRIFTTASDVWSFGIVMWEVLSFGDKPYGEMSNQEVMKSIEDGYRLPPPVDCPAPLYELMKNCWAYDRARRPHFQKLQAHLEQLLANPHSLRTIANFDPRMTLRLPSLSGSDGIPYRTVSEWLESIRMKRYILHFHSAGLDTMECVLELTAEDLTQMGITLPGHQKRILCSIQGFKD
Kind of experiment: flow cytometry on 293T cells overexpressing EphA1-A8. On the procedure: To detect the binding specificity of scFv, 293T cells were transformed with EphA1-A8 plasmids individually for overexpression of different EphA molecules. The cell line was freshly prepared and washed with FACS buffer (2% FBS in PBS). The cells were seeded at 1×10⁵ cells/well into a 96-well Ubottom plate and incubated with scFv for 1 h at 4° C. After the plate was washed with FACS buffer, the anti-hemagglutinin (HA) antibody was added for scFv binding detection (scFv was fused with a HA tag) and subsequently developed using an FITC-conjugated secondary antibody. Finally, the cell binding signal was analyzed using a FACS can flow cytometer.
Background: In flow cytometry, cells or beads pass a laser one at a time.

T1 sequence (P29317 24-976): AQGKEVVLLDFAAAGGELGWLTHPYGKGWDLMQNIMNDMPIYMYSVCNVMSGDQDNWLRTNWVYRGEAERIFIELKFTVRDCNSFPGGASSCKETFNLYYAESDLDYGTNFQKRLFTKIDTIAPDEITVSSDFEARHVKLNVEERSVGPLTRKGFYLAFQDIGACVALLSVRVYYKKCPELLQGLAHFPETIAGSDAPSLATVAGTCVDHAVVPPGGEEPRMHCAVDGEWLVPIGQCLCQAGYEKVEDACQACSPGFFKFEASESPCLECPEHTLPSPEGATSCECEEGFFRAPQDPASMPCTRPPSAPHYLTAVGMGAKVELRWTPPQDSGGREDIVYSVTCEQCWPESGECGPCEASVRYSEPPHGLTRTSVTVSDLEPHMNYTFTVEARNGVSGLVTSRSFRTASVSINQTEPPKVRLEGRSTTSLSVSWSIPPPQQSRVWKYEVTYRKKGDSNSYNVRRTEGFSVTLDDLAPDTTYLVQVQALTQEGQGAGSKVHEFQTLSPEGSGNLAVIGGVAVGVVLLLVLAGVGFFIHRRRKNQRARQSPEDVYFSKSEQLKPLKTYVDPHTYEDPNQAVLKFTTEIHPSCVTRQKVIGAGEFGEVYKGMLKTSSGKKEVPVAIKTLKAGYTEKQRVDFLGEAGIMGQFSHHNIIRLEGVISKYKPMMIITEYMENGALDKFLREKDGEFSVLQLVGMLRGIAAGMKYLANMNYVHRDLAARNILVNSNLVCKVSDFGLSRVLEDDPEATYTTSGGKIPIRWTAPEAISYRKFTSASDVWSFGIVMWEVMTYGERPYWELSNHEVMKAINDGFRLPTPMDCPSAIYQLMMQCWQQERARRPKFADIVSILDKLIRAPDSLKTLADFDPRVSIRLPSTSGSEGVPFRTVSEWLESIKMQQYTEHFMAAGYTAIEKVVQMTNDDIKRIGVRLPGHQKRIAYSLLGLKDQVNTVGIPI

B1: IgG hSD5: complete humanized anti-EphA2 IgG (IgG1) of hSD5 (antibody, V domains shown)
VH: QVQLVESGGGLVQPGGSLRLSCAASGFTFSDYGMGWVRQAPGKGLEWVAGISAAGSFTPYGAAVKGRFTISRDNSKNTVYLQMNSLRAEDTAVYYCARIPSGYRAGEIYTWGQGTLVTVSS
VL: LTQPPSVSVSPGQTVRITCSGSSGSYGWYQQKSPGQAPVTLIYDNDKRPSGIPERFSGSSSGSTSTLTISGVQAEDEADYYCGSADSSTYVGMFGGGTKLTVL
B1: in experiment [1], the “endocytosis after targeting EphA2” value is “endocytosed from the cell membrane into the cytoplasm”. The “binding response to EphA2 molecules on gastric cancer cells” value in experiment [2] is “significant binding response”. Moreover, in experiment [3] (peptide ELISA (FIG. 9A)), the “binding to long peptide EphA2pep_PIP2” value is given as “exhibited a binding response”; the “binding to short peptides EphA2pep_P1 and EphA2pep_P2” value is on record as “individually recognized”; the “interaction with EphA2pep_P1 compared with EphA2pep_P2” value is “stronger”. Also, in experiment [3] (peptide ELISA, NC peptides (FIG. 9A)), the “cross-binding to two irrelevant peptides” value is “did not exhibit a cross-binding reaction”.

B2: Humanized scFv hSD5 (scFv)
scFv: LTQPPSVSVSPGQTVRITCSGSSGSYGWYQQKSPGQAPVTLIYDNDKRPSGIPERFSGSSSGSTSTLTISGVQAEDEADYYCGSADSSTYVGMFGGGTKLTVLGQSSRSSQVQLVESGGGLVQPGGSLRLSCAASGFTFSDYGMGWVRQAPGKGLEWVAGISAAGSFTPYGAAVKGRFTISRDNSKNTVYLQMNSLRAEDTAVYYCARIPSGYRAGEIYTWGQGTLVTVSS
notes: also called hSD5 scFv; Humanized scFv hSDS
Regarding B2, in experiment [4], the binding result is listed as “no binding”.
